# From PMC3713010, “Sox2 Transcriptionally Regulates Pqbp1, an Intellectual Disability-Microcephaly Causative Gene, in Neural Stem Progenitor Cells”
# T1: Brn2 DNA-binding domain (BD-Brn2) (Mus musculus (B6), UniProt P31360 336-435)
# T1 sequence: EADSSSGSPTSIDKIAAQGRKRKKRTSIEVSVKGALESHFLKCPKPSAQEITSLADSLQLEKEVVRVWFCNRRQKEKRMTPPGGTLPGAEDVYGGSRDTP
# T2: Oct6 DNA-binding domain (BD-Oct6) (Mus musculus (B6), UniProt P21952 317-416)
# T2 sequence: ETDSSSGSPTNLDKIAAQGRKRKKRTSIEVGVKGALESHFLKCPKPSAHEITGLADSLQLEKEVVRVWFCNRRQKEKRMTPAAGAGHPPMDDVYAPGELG
# B1: 128 (dsDNA)
# DNA 1: GGGGGAATATCAGTGTAATGATTAACAGACAATGGCAGAGGCCCCC
# DNA 2: GGGGGCCTCTGCCATTGTCTGTTAATCATTACACTGATATTCCCCC
# B2: 12 (dsDNA)
# DNA 1: GGGGGAGTATGAGTTTGTATATGTTGATTAACCAAACACTCCCCC
# DNA 2: GGGGGAGTGTTTGGTTAATCAACATATACAAACTCATACTCCCCC
# B3: 3 (dsDNA)
# DNA 1: GGGGGACCTATACTTTGTTTTTATTGCCTAGTAATCCCCC
# DNA 2: GGGGGATTACTAGGCAATAAAAACAAAGTATAGGTCCCCC
# B4: 4a (dsDNA)
# DNA 1: GGGGGGACTTAATTGTGAGTCTCTGTAAAATTAACAAACAAGTTACCCCCC
# DNA 2: GGGGGGTAACTTGTTTGTTAATTTTACAGAGACTCACAATTAAGTCCCCCC
# B5: 4b (dsDNA)
# DNA 1: GGGGGAGTCTCTGTAAAATTAACAAACAAGTTACCCCCC
# DNA 2: GGGGGGTAACTTGTTTGTTAATTTTACAGAGACTCCCCC
# B6: 4c (dsDNA)
# DNA 1: GGGGGTAAAATTAACAAACAAGTTACATTATCTAATATACACCCCC
# DNA 2: GGGGGTGTATATTAGATAATGTAACTTGTTTGTTAATTTTACCCCC
# B7: 5 (dsDNA)
# DNA 1: GGGGGTGTAGGTCATTGTGGCCTCAAATTTGGTAATGTAACCCCC
# DNA 2: GGGGGTTACATTACCAAATTTGAGGCCACAATGACCTACACCCCC
# B8: 6 (dsDNA)
# DNA 1: GGGGGAGGACTTAATTGTTCGCATTTCTGTATTCTGCCCCC
# DNA 2: GGGGGCAGAATACAGAAATGCGAACAATTAAGTCCTCCCCC
# B9: 7 (dsDNA)
# DNA 1: GGGGGCAACCACCTCTAAATGCCTACAAATTGTATGGTCATCCCCC
# DNA 2: GGGGGATGACCATACAATTTGTAGGCATTTAGAGGTGGTTGCCCCC
# B10: 8 (dsDNA)
# DNA 1: GGGGGGCTGTAACAGAATACCTGACAAAAGCAACTTCCCCC
# DNA 2: GGGGGAAGTTGCTTTTGTCAGGTATTCTGTTACAGCCCCCC
# B11: 13 (dsDNA)
# DNA 1: GGGGGTCTCCTGCTTTGTAGTCACAGAGTAGTCAAGAAGGGCTCCCCC
# DNA 2: GGGGGAGCCCTTCTTGACTACTCTGTGACTACAAAGCAGGAGACCCCC
# B12: 14 (dsDNA)
# DNA 1: GGGGGGTCAGGATTTTGTGTGTGGATTAACTGTATCATCCCCC
# DNA 2: GGGGGATGATACAGTTAATCCACACACAAAATCCTGACCCCCC
# B13: 15 (dsDNA)
# DNA 1: GGGGGAGATCTTTACAAATTTCTATATTAGAGTTTTTTGTCCCCC
# DNA 2: GGGGGACAAAAAACTCTAATATAGAAATTTGTAAAGATCTCCCCC
# B14: 16a (dsDNA)
# DNA 1: GGGGGGTGAACCCTTTCAGATTTAGTGACGTAGCTTCACAAAGTGATTAACCCCC
# DNA 2: GGGGGTTAATCACTTTGTGAAGCTACGTCACTAAATCTGAAAGGGTTCACCCCCC
# B15: 16b (dsDNA)
# DNA 1: GGGGGGTAGCTTCACAAAGTGATTAACACATGGATACCCCC
# DNA 2: GGGGGTATCCATGTGTTAATCACTTTGTGAAGCTACCCCCC
# B16: 17 (dsDNA)
# DNA 1: GGGGGTTTAAAGATTTGTTTCTTTATTATATGTAAGTACCCCC
# DNA 2: GGGGGTACTTACATATAATAAAGAAACAAATCTTTAAACCCCC
# B17: 18 (dsDNA)
# DNA 1: GGGGGCTTAGAATTAGTAATTTCTTGATATTGTCTGTTAAGCCCCC
# DNA 2: GGGGGCTTAACAGACAATATCAAGAAATTACTAATTCTAAGCCCCC
# B18: 19 (dsDNA)
# DNA 1: GGGGGGAAGGAAAATTGTTCCCTGACATTTTTGAACTGGGCCCCC
# DNA 2: GGGGGCCCAGTTCAAAAATGTCAGGGAACAATTTTCCTTCCCCCC
# B19: 20 (dsDNA)
# DNA 1: GGGGGCTCAGAGCTAGAAATATTTGTGGAATGGGCCCCC
# DNA 2: GGGGGCCCATTCCACAAATATTTCTAGCTCTGAGCCCCC
# B20: 21 (dsDNA)
# DNA 1: GGGGGCAGAATCATTTGTGTTTTCCCATTTTTGCCAGGGGCCCCC
# DNA 2: GGGGGCCCCTGGCAAAAATGGGAAAACACAAATGATTCTGCCCCC
# B21: 22 (dsDNA)
# DNA 1: GGGGGTACATACAGCAAAATAATCTTTGTAGGGGGGACCCCC
# DNA 2: GGGGGTCCCCCCTACAAAGATTATTTTGCTGTATGTACCCCC
# B22: 23 (dsDNA)
# DNA 1: GGGGGAATCTCTATCTTACTTCTTGTAAGTGTGGACAAATGCAGGTTCCCCC
# DNA 2: GGGGGAACCTGCATTTGTCCACACTTACAAGAAGTAAGATAGAGATTCCCCC
# Molecular target: T1, Brn2 DNA-binding domain (BD-Brn2)
# Test: EMSA; 10% glycerol, 20 mM HEPES pH 7.8, 45 mM KCl, 10 mM NaCl, 1 mM EDTA, 1 mM DTT, 0.2 ug/uL BSA, 0.1% NP-40, 50 ng poly-dIdC; 20 ng each GST protein; room temperature 30 min (heterodimers 4 C); 6% PAGE 0.25x TBE
# Details: protein: recombinant; tags: GST (N-terminal, pGEX-6P-1); label: 32P-dCTP fill-in of the 5' (dG)5 overhangs of both strands (Methods; control probes are given with GGG)
# In short: (§1)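 DNA binding of transcription factor DNA-binding domains to candidate cis-elements was read from band radioactivity in the expected shift region. The GST-tagged domains came from E. coli BL21 via glutathione-sepharose; probes were annealed oligonucleotides labelled with 32P-dCTP. Each assay used 20 ng protein, 40,000–50,000 cpm probe and 50 ng poly-dIdC for 30 min at room temperature, followed by 6% polyacrylamide electrophoresis in 0.25×TBE at 4°C.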
row,Binder,binding result
1,B1,no binding
2,B2,binds
3,B3,no binding
4,B4,binds
5,B5,binds
6,B6,binds
7,B7,binds
8,B8,binds
9,B9,no binding
10,B10,no binding
11,B11,no binding
12,B12,no binding
13,B13,no binding
14,B14,binds
15,B15,binds
16,B16,binds
17,B17,no binding
18,B18,no binding
19,B19,no binding
20,B20,no binding
21,B21,no binding
22,B22,no binding

# Molecular target: Pax6 DNA-binding domain (BD-Pax6) (Mus musculus (B6), UniProt P63015 190-289)
# Test: as above
# Details: protein: recombinant; tags: GST (N-terminal, pGEX-6P-1); label: 32P-dCTP fill-in of the 5' (dG)5 overhangs of both strands (Methods; control probes are given with GGG)
# In short: as §1
# Sequence of Pax6 DNA-binding domain (BD-Pax6) (P63015 190-289): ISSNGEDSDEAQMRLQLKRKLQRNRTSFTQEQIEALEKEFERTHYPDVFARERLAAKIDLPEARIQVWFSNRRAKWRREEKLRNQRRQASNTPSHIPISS
row,Binder,binding result
1,B1,binds
2,B2,no binding
3,B3,no binding
4,B4,no binding
5,B5,no binding
6,B6,no binding
7,B7,no binding
8,B8,no binding
9,B9,no binding
10,B10,no binding
11,B11,no binding
12,B12,no binding
13,B13,no binding
14,B14,no binding
15,B15,no binding
16,B16,no binding
17,B17,binds
18,B18,no binding
19,B19,no binding
20,B20,no binding
21,B21,no binding
22,B22,no binding

# Molecular target: T2, Oct6 DNA-binding domain (BD-Oct6)
# Test: as above
# Details: protein: recombinant; tags: GST (N-terminal, pGEX-6P-1); label: 32P-dCTP fill-in of the 5' (dG)5 overhangs of both strands (Methods; control probes are given with GGG)
# In short: as §1
row,Binder,binding result
1,B1,no binding
2,B2,no binding
3,B3,no binding
4,B4,binds
5,B5,binds
6,B6,binds
7,B7,no binding
8,B8,binds
9,B9,no binding
10,B10,no binding
11,B11,no binding
12,B12,no binding
13,B13,no binding
14,B14,binds
15,B15,binds
16,B16,binds
17,B17,binds
18,B18,no binding
19,B19,no binding
20,B20,no binding
21,B21,no binding
22,B22,no binding
